Test results reported in paper PMC4245848, “The Aspergillus nidulans Zn(II)2Cys6 transcription factor AN5673/RhaR mediates L-rhamnose utilization and the production of α-L-rhamnosidases”.
Positions count from the first letter of the chain named.

Legend:
[1] = target: T1, His6::RhaR (1-159*) (Aspergillus nidulans (cDNA from strain AR198)) (UniProt A0A0A1I536); assay: EMSA; conditions: 25 mM HEPES pH 7.9, 50 mM KCl, 5 mM MgCl2, 1 mM DTT, 0.1 mM EDTA, 1 ug salmon sperm DNA, 20 ul, 4 C 30 min; 5-8% native PAGE in 0.5x TBE at 4 C, ethidium …
T1 sequence: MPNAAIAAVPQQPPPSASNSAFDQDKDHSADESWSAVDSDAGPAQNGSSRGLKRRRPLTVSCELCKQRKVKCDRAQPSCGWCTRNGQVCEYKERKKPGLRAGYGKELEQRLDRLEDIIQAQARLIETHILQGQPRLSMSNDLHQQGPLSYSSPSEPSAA

His6::RhaR (1-159*) = target: T2, His6::RhaR (1-159*) (Aspergillus nidulans (cDNA from strain …, UniProt A0A0A1I536)); assay: EMSA; 25 mM HEPES pH 7.9, 50 mM KCl, 5 mM MgCl2, 1 mM DTT, 0.1 mM EDTA, 1 ug salmon sperm DNA, 20 ul, 4 C 30 min; 5-8% native PAGE in 0.5x TBE at 4 C, ethidium bromide; conditions: protein: recombinant; tags: N-terminal His6 (pQE-80L); chain copies: 2; blunt
T2 sequence: T1 sequence

Molecule: AGATCTTCTCTGGGGAAGATCGACCGACCTGGTCCTGCAGAGCTCCAAGGCTTCCTCTCAGAAAGCCGATTAGTAGAAGCGGAGTCAAAGCAGGGTCAAGACGGACAATTAGAAGCCATGAATGGCGGATCCCAGCCCATGATCGCATACTGTGATCCAAAATCGACATAACTAAGTCACTTCCCTTCGCTTGTATCTGCCCAGCCATCCAACAACTCTA (double strand) [rhaAp 219 bp mut1]
- binding [1]: binds more weakly

B1: 35-mer wild type (dsDNA)
DNA 1: AGATCTTCTCGGGGGAAGATCGACCGACCTGGTCC
DNA 2: GGACCAGGTCGGTCGATCTTCCCCCGAGAAGATCT
- binding result (His6::RhaR (1-159*)): binds

B2: 35-mer mut1 mut2 (dsDNA)
DNA 1: B1 DNA 1 with G11T, C25A
DNA 2: B1 DNA 2 with G11T, C25A
- binding result (His6::RhaR (1-159*)): no binding
